Laboratory results published in US20220252601A1 (JW BIOSCIENCE, published 2022).
Substitutions are numbered along the chain they refer to.

T1: CRS (cysteinyl-tRNA synthetase) (UniProt P49589 1-748, limits assumed)
T1 sequence (looked up): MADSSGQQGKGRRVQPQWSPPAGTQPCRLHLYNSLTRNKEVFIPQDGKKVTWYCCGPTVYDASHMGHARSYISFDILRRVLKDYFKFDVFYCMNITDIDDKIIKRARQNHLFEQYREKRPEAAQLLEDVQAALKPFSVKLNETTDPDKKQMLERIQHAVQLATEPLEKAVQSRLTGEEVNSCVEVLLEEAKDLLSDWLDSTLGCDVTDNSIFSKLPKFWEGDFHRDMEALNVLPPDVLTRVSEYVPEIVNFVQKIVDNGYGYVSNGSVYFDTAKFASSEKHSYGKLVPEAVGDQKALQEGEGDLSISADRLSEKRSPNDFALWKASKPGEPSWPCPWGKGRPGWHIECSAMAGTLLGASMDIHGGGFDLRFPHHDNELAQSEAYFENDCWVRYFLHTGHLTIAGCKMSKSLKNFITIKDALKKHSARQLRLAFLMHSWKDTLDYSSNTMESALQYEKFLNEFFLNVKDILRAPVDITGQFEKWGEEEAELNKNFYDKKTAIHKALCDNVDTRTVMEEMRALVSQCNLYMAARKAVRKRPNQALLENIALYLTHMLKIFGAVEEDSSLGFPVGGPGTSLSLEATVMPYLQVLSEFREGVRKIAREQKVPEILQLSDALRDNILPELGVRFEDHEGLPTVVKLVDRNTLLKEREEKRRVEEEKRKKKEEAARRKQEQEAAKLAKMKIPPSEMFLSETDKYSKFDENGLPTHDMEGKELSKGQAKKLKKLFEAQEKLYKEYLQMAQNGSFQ

T2: AIMP1 (aminoacyl tRNA synthase complex-interacting multifunctional protein 1) (UniProt Q12904 1-312, limits assumed)
T2 construct: also called p43
T2 sequence (looked up): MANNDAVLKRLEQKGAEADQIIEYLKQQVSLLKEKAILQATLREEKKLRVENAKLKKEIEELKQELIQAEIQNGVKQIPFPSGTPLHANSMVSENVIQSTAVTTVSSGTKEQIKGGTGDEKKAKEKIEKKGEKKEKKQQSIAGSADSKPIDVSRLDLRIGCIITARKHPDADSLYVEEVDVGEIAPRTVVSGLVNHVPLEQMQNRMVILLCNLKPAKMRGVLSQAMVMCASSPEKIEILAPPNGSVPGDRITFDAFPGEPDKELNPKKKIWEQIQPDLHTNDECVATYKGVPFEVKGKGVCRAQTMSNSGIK

T3: GRS (glycyl tRNA synthetase) (UniProt P41250 55-739, limits assumed)
T3 sequence (looked up): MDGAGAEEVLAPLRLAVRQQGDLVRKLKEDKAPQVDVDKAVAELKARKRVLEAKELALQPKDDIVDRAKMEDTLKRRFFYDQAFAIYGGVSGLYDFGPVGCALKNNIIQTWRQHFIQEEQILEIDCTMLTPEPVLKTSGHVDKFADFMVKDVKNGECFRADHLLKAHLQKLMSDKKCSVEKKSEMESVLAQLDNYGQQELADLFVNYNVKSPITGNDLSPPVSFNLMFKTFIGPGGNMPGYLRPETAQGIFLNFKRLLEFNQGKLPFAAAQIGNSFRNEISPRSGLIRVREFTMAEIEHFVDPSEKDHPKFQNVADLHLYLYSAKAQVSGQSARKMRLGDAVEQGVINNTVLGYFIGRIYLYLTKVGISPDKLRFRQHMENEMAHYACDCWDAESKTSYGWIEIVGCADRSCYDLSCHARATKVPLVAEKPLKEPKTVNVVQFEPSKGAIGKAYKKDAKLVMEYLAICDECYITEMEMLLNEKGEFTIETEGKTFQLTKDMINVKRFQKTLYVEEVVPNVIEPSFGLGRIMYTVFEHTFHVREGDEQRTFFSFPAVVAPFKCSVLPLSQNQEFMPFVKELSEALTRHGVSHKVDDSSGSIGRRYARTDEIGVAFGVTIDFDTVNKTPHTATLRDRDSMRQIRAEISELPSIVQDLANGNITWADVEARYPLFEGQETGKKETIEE

B1: 3B6 (antibody, V domains shown)
VH: EVQLLESGGGLVQPGGSLRLSCAASGFTFSSYSMSWVRQAPGKGLEWVSAISYDNGNTYYADSVKGRFTISRDNSKNTLYLQMNSLRAEDTAVYYCAKGATTQPHTSFDYWGQGTLVTVNS
VL: QSVLTQPPSASGTPGQRVTISCSGSSSNIGNNNVSWYQQLPGTAPKLLIYYNSHRPSGVPDRFSGSKSGTSASLAISGLRSEDEADYYCGTWDASLSAYVFGGGTKLTVL
modifications: Antibody was biotin-attached in the ELISA of Example 5; site not stated.
B2: 4H9 (antibody, V domains shown)
VH: EVQLLESGGGLVQPGGPLRLSCAASGFTFSNYAMSWVRQAPGKGLEWVSSIYPDGGGIYYADSVKGRFTISRDNSKNTLYLQMNSLRAEDTAVYYCARDLYPFGPDTFDYWGQGTLVTVSS
VL: B1 VL with N31S, N33D, S35T, Y51D, H54K, T91A, A94D, A98G
modifications: Antibody was biotin-attached in the ELISA of Example 5; site not stated.
B3: 4G4 (antibody, V domains shown)
VH: EVQLLESGGGLVQPGGSLRLSCAASGLTFSNYAMSWVRQAPGKGLEWVSWISPGDGNKYYADSVRGRFTVSRDNSKNTLYLQMNSLRAEDTAVYYCARVTIPCRRTTCYSANGMDVWGQGTLVTVSS
VL: B1 VL with N31S, N33S, S35T, Y51H, N52D, R55P, G90A, T91A, A94D, A98G
modifications: Antibody was biotin-attached in the ELISA of Example 5; site not stated.
B4: 1D4C3 (antibody, V domains shown)
VH: QAYLQQSGAELVRPGASVKMSCKASGYTFTSYNMHWVKQTPRQGLEWIGAIYPGNGDSSYNQKFKGKATLTVGKSSSTAYMQLSSLTSEDSAVYFCARWHYGSTYYAMDYWGQGTSVTVSS
VL: DIQMTQTTSSLSASLGDRVTISCRASQDISNYLNWFQQKPDGTVKLLIYYTSRLHSGVPSRFSGSGSGTDYSLTISNLEQEDFATYFCQQGKTLPHTFGGGTKLEIK
modifications: Antibody was biotin-attached in the ELISA of Example 5; site not stated.
notes: detected with anti-mouse HRP; also called 1D4C4
B5: 3B10H5 (antibody, V domains shown)
VH: B4 VH with M34L, E46K, S58T, G73D, T104S
VL: B4 VL with F36Y, Y49S, F83I, K92Y
modifications: Antibody was biotin-attached in the ELISA of Example 5; site not stated.
notes: detected with anti-mouse HRP

These binders were tested against T1, CRS (cysteinyl-tRNA synthetase) (assay: indirect ELISA, antigen coated at 1 µg/ml).

Binding result, no binding (tested: 500 ng/ml):
B1
B2
B3
B4
B5

What follows are binders tested against T2, AIMP1 (aminoacyl tRNA synthase …) (assay: indirect ELISA, antigen coated at 1 µg/ml).

Binding result, no binding (tested: 500 ng/ml):
B1
B2
B3
B4
B5

What follows are binders tested against T3, GRS (glycyl tRNA synthetase) (assay: indirect ELISA, antigen coated at 1 µg/ml).

Binding result, no binding (tested: 500 ng/ml):
B1
B2
B3
B4
B5

These binders were tested against KRS (lysyl tRNA synthetase) (UniProt Q15046 1-597, limits assumed) (assay: indirect ELISA, antigen coated at 1 µg/ml).
KRS (lysyl tRNA synthetase), sequence (Q15046 whole entry): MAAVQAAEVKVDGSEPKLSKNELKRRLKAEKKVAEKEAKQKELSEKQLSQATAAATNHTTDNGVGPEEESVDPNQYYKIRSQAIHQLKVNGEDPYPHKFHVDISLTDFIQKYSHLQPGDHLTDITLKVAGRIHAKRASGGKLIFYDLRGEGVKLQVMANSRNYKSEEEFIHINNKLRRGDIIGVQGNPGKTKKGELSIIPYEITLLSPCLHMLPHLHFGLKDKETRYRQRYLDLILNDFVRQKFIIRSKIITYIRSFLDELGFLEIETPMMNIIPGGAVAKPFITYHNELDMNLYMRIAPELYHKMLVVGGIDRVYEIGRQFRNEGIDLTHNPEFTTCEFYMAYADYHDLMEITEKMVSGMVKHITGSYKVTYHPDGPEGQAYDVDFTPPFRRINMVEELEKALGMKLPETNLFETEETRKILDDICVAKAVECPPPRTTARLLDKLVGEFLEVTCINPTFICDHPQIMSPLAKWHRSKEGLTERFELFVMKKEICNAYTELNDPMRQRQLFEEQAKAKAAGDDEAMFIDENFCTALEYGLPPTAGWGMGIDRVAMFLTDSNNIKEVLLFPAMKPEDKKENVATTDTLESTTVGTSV

Binding result, no binding (tested: 500 ng/ml):
B1
B2
B3
B4
B5
